Experimental data as given in the supplement of paper PMC9112550, “Optimization of the antimicrobial peptide Bac7 by deep mutational scanning” (BMC Biology, 2022).

System: Escherichia coli TOP10
Experiment: shrunken log2 fold change of peptide-encoding DNA abundance (4.5 h post-induction vs induction); higher = less antimicrobial activity (less host growth inhibition)
Conditions: time post-induction: 4.5 h; library: site-saturation at positions 5, 18, 19, 20
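Also: peptides expressed intracellularly from a pBAD plasmid library in pooled LB shake-flask culture, induced with 0.3% L-arabinose, DNA abundance read by NGS, three biological replicates, DESeq2 with apeglm shrinkage.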

| Sequence | shrunken log2 fold change |
| --- | --- |
| RRIRTRPPRLPRPRPRPSYKPRP | -0.594 |
| RRIRVRPPRLPRPRPRPHSPPRP | -0.0205 |
| RRIRYRPPRLPRPRPRPSYWPRP | -0.716 |
| RRIRARPPRLPRPRPRPCYMPRP | -0.0886 |
| RRIRIRPPRLPRPRPRPGIFPRP | -0.5 |
| RRIRNRPPRLPRPRPRPWNQPRP | -0.0135 |
| RRIRIRPPRLPRPRPRPTADPRP | -0.063 |
| RRIRNRPPRLPRPRPRPMLNPRP | -0.21 |
| RRIRMRPPRLPRPRPRPLRGPRP | 2.15 |
| RRIRLRPPRLPRPRPRPCQYPRP | -0.448 |
| RRIRFRPPRLPRPRPRPVAVPRP | 0.105 |
| RRIRHRPPRLPRPRPRPNWHPRP | -0.242 |
| RRIRPRPPRLPRPRPRPMANPRP | 1.35 |
| RRIRSRPPRLPRPRPRPNYTPRP | -0.479 |
| RRIRVRPPRLPRPRPRPMTWPRP | -0.124 |
| RRIRIRPPRLPRPRPRPGSFPRP | -0.0206 |
| RRIRLRPPRLPRPRPRPPDYPRP | -0.199 |
| RRIRQRPPRLPRPRPRPWFKPRP | -0.183 |
| RRIRQRPPRLPRPRPRPMYGPRP | -0.0233 |
| RRIRDRPPRLPRPRPRPEFVPRP | 0.204 |
| RRIRYRPPRLPRPRPRPDPTPRP | -0.435 |
| RRIRERPPRLPRPRPRPIQIPRP | -0.103 |
| RRIRVRPPRLPRPRPRPQCKPRP | -0.129 |
| RRIRDRPPRLPRPRPRPQLCPRP | 0.365 |
| RRIRFRPPRLPRPRPRPMTVPRP | -0.463 |

| Sequence | shrunken log2 fold change |
| --- | --- |
| RRIRRRPPRLPRPRPRPQCNPRP | 0.0615 |
| RRIRWRPPRLPRPRPRPYLVPRP | -0.195 |
| RRIRHRPPRLPRPRPRPHCMPRP | -0.0295 |
| RRIRTRPPRLPRPRPRPCKCPRP | -1.16 |
| RRIRWRPPRLPRPRPRPRNTPRP | -0.0542 |
| RRIRCRPPRLPRPRPRPKHSPRP | -0.401 |
| RRIRARPPRLPRPRPRPVLIPRP | -0.179 |
| RRIRSRPPRLPRPRPRPWGQPRP | 0.0926 |
| RRIRDRPPRLPRPRPRPAHPPRP | -0.203 |
| RRIRNRPPRLPRPRPRPQTMPRP | -0.238 |
| RRIRERPPRLPRPRPRPFNLPRP | -0.233 |
| RRIRIRPPRLPRPRPRPSPEPRP | -0.241 |
| RRIRNRPPRLPRPRPRPEHEPRP | 0.127 |
| RRIRERPPRLPRPRPRPTYRPRP | -0.0372 |
| RRIRYRPPRLPRPRPRPDHSPRP | -0.889 |
| RRIRLRPPRLPRPRPRPVGCPRP | 0.226 |
| RRIRNRPPRLPRPRPRPGEWPRP | 0.00667 |
| RRIRWRPPRLPRPRPRPDNQPRP | -0.265 |
| RRIRPRPPRLPRPRPRPVPTPRP | 0.424 |
| RRIRVRPPRLPRPRPRPWWCPRP | -0.0966 |
| RRIRQRPPRLPRPRPRPSEPPRP | 0.0286 |
| RRIRSRPPRLPRPRPRPWDEPRP | -0.0358 |
| RRIRNRPPRLPRPRPRPNYNPRP | -1.07 |
| RRIRYRPPRLPRPRPRPVVAPRP | -0.32 |
| RRIRGRPPRLPRPRPRPKHIPRP | -0.00571 |
